From the supplement of paper PMC7125110
± gives the standard error. Variants at the floor of the assay were thinned out.

B1: glmS ribozyme (parent)
chain: AUAAAAGCGCCAGAACUACAGAAAUGUAGUUGACGAGGAGGAGGUUUAUCGAAUUUUCGGCGGAUGCCUCCAAA

Tests used:
Conditions in all cases: with glucosamine-6-phosphate
glucosamine-6-phosphate [1] = variants of: B1; assay: self-cleavage kobs at 40 uM GlcN6P; higher = faster cleavage; RNA array
Method in brief: (§1)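 kobs was derived by fitting per-tile medians to one- or two-exponential decays after normalising signals to baseline and to non-cleaving reference variants. Those signals came from barcoded ribozyme variants transcribed in situ by E. coli RNA polymerase on sequenced MiSeq chips, followed through a hybridised Cy3 probe at 37 °C and imaged over ~14 h. Glucosamine-6-phosphate (40 μM to 10 mM) in HEPES/KCl/Mg(OAc)2 buffer was flowed in. Weighted Michaelis–Menten fits across concentrations then gave kcat and KM.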

glucosamine-6-phosphate [2] = variants of: B1; assay: self-cleavage kobs at 640 uM GlcN6P; higher = faster cleavage; RNA array
Method in brief: as §1

glucosamine-6-phosphate [3] = variants of: B1; assay: self-cleavage kobs at 2500 uM GlcN6P; higher = faster cleavage; RNA array
Method in brief: as §1

glucosamine-6-phosphate [4] = variants of: B1; assay: self-cleavage kobs at 10000 uM GlcN6P; higher = faster cleavage; RNA array
Method in brief: as §1

glucosamine-6-phosphate [5] = variants of: B1; assay: self-cleavage kobs at 160 uM GlcN6P; higher = faster cleavage; RNA array
Method in brief: as §1

Variant	self-cleavage kobs at 40 uM GlcN6P (glucosamine-6-phosphate [1]) [s⁻¹]	self-cleavage kobs at 640 uM GlcN6P (glucosamine-6-phosphate [2]) [s⁻¹]	self-cleavage kobs at 2500 uM GlcN6P (glucosamine-6-phosphate [3]) [s⁻¹]	self-cleavage kobs at 10000 uM GlcN6P (glucosamine-6-phosphate [4]) [s⁻¹]	self-cleavage kobs at 160 uM GlcN6P (glucosamine-6-phosphate [5]) [s⁻¹]
A12U G29A U56C	0.000118 ± 2.9e-05	0.000685 ± 0.00022	0.0018 ± 0.00058		
A6C C8U C68A C70A	< 1e-05				
A12U G41U U54A	4.72e-05 ± 1.9e-05			0.000602 ± 0.00016	
G35C G43A	< 1e-05		< 1e-05		< 1e-05
C16U U31C G35A G41A G62U	< 1e-05	< 1e-05			
C8U G43U G44U C71A	< 1e-05	< 1e-05			
A6C G40U	< 1e-05	< 1e-05			< 1e-05
A6C A15U A36C G43A U46G C50U A53U C61U	< 1e-05	< 1e-05	< 1e-05	< 1e-05	
A33C C58A G62A	< 1e-05				
G43A G44A G51A C58A	< 1e-05			< 1e-05	
A39G G60U	< 1e-05	< 1e-05			< 1e-05
C11A C16G U54A C68A	6.79e-05 ± 2.4e-05			5.11e-05 ± 2e-05	
A53G G60C	< 1e-05			< 1e-05	
A36G A53G	< 1e-05	< 1e-05			< 1e-05
C61A G66C	< 1e-05		< 1e-05	< 1e-05	
A36C G62C	< 1e-05			< 1e-05	< 1e-05
A36C G62A	< 1e-05		< 1e-05		< 1e-05
U30A C68A	< 1e-05				
G7A G9U A48G	< 1e-05				
C8U C10A C50A	< 1e-05				
C16U U69C	0.000407 ± 8.8e-05	0.000778 ± 0.00013	0.000683 ± 0.00014	0.0036 ± 0.00088	0.000359 ± 9e-05
A39G G40A	0.000261 ± 8e-05	0.00167 ± 0.00076	0.00889 ± 0.0023		
G13C U49C	< 1e-05		< 1e-05	< 1e-05	
G40C C68A	< 1e-05	< 1e-05	< 1e-05	< 1e-05	< 1e-05
A42C C61A G66U	< 1e-05		< 1e-05		
A52U A53G C61U	< 1e-05				
U31A U49A C61U C70G	< 1e-05				

Variant	self-cleavage kobs at 40 uM GlcN6P (glucosamine-6-phosphate [1]) [s⁻¹]	self-cleavage kobs at 640 uM GlcN6P (glucosamine-6-phosphate [2]) [s⁻¹]	self-cleavage kobs at 2500 uM GlcN6P (glucosamine-6-phosphate [3]) [s⁻¹]	self-cleavage kobs at 10000 uM GlcN6P (glucosamine-6-phosphate [4]) [s⁻¹]	self-cleavage kobs at 160 uM GlcN6P (glucosamine-6-phosphate [5]) [s⁻¹]
G32U A52G C58A C70A	5.29e-05 ± 2.5e-05			4.31e-05 ± 2e-05	
C34A G37U G44U	< 1e-05				
C10G G37A	< 1e-05	< 1e-05		< 1e-05	< 1e-05
C8U G38U G59U C67U	< 1e-05				
A48G U54A C61U	< 1e-05				
G32A C50G G51A	< 1e-05				
A14G U69A	0.000118 ± 2.8e-05	0.000315 ± 9.3e-05	0.000142 ± 2.2e-05	0.000397 ± 9.9e-05	0.000124 ± 2.5e-05
G40C A64C	< 1e-05				< 1e-05
A39G A53C	0.000254 ± 5.4e-05	0.00303 ± 0.00075	0.0068 ± 0.0017	0.0216 ± 0.0083	0.000658 ± 0.00016
G59A C68U U69G	< 1e-05				
U30A U55A C61A	< 1e-05		< 1e-05		
G29U A36G A48C C71G	< 1e-05				
A12U A42G U46G G63U	< 1e-05			< 1e-05	
A12U A33C G37C	< 1e-05			< 1e-05	
G9A A15U G63U	< 1e-05				
A6G G41U C50G	< 1e-05		< 1e-05	< 1e-05	
G35C A39G U49G C50U	< 1e-05	< 1e-05	< 1e-05	< 1e-05	
A12C A15C U47A U49A	< 1e-05			< 1e-05	
A14U G35C	< 1e-05	< 1e-05	< 1e-05	< 1e-05	< 1e-05
U47A U56A	0.00024 ± 5.3e-05	0.00196 ± 0.00027	0.00548 ± 0.0015	0.0235 ± 0.0091	0.000539 ± 0.0001
U30G A36G	< 1e-05	< 1e-05	< 1e-05	< 1e-05	< 1e-05
A6G C58A C67G	0.000658 ± 0.00021			0.000123 ± 3.5e-05	
G35U U54C U56G A64U C70U	< 1e-05			< 1e-05	
G63U A64C C67G C70U	< 1e-05	< 1e-05		< 1e-05	
A48C U69G C70U	< 1e-05		< 1e-05	< 1e-05	
C8U G9C C10A G37U G40U G41A C50U	< 1e-05				
